Like-named read-outs stand apart in the source and are kept apart here. Where no end group is shown, it is not given here.
How the values were obtained:
[1] = Active agent/FDKP microparticle adsorption studies (loading curves, HPLC); format: physicochemical; conditions: for binding of GLP-1 onto the FDKP microparticle surface: 100 mM TMAO
Method: Aqueous samples at varying pH and at 20° C. (unless otherwise noted) were analyzed.
The association of active agent with diketopiperazine (DKP) particles in suspension was evaluated by conducting adsorption studies.
(§1) Unbound active agent in the supernatant was filtered off the suspension. […] The amount of active agent in both the supernatant and reconstituted fractions was quantitated by HPLC. A series of experiments were conducted in which conditions employed included use of additives such as salts, osmolytes, chaotropes and kosmotropes, and alcohols.
The concentration of the chaotrope or kosmotrope in the samples was held constant at 100 mM and the pH varied from 2.0 to 5.0. Chaotropes or kosmotropes were selected from the following: NaSCN, CsCl, Na2SO4, (CH3)3N—HCl, […], Na Citrate, and NaClO4. The control indicates no chaotrope or kosmotrope were added.
The concentration of the osmolyte (stabilizer) in the samples was held constant at 100 mM and the pH varied from about 2.0 to about 5.0. The osmolytes were selected from hexylene-glycol (Hex-Gly), trehalose, glycine, PEG, TMAO, mannitol and proline; the control indicates no osmolyte.
In assessing the effect of modifiers on the active agent that allows for adsorption to the microparticle surface by a hydrophobic mechanism, the effect of alcohols were examined. […] The effect of each alcohol was observed over a pH range of 2.0 to 5.0. The alcohols used were trifluoroethanol (TFE) and hexafluoroisopropanol (HFIP). Each alcohol was evaluated at varying concentrations which include 5%, 10%, 15%, or 20% v/v.
(§2) The amount of active agent detected in reconstituted microparticle-free control samples as a function of pH and NaCl concentration was assessed. The pH was controlled with a 20 mM potassium phosphate/20 mM potassium acetate mixture.

[2] = Active agent detected in reconstituted microparticle-free control samples (precipitation, HPLC); format: physicochemical
Method: as §1
Similar observations were disclosed in U.S. Provisional Application Ser. No. 60/744,882.
The effect of TFE was less pronounced, and at the lower pHs tested was detrimental. […] The mass ratios in FIGS. 3C-D reflect both adsorbed and precipitated active agent although precipitation is an increasingly minor component as the pH decreased toward 3.0.
as §2

[3] = in the presence of NaSCN, NaClO4, Na2SO4, NaNO3 and Na citrate; cited from earlier work

Substance: ghrelin (GSSFLSPEHQRVQQRKESKKPPAKLQPR; ends and bridges not checked; UniProt Q9UBU3 24-51, looked up)
- affinity of ghrelin for the microparticle surface vs control ([1]; 100 mM mannitol, PEG, glycine, Hex-Gly, trehalose, pH about 4.0 to 5.0): greater affinity
- affinity of ghrelin for the microparticle surface (mass ratio of ghrelin to FDKP particles) ([1]; HFIP and TFE at 5%, 10%, 15%, 20% v/v, pH 2.0-4.0): greatly improved affinity

Substance: glucagon-like peptide 1 [GLP-1]
- affinity for adsorption of GLP-1 onto FDKP particle surface ([1]; 100 mM PEG and proline, pH 2.0 to 4.0): improved the affinity
- binding of GLP-1 onto the FDKP microparticle surface ([1]; pH 2.0): more effective than PEG or proline
- binding of GLP-1 onto the FDKP microparticle surface ([1]; pH 3.0 and above): modestly detrimental
- affinity of GLP-1 for the FDKP microparticles ([1]; 100 mM chaotropes and kosmotropes, pH 2.0-4.0, greater effect at lower pH): improved affinity
- affinity of GLP-1 for the microparticle surface ([1]; HFIP and TFE at 5% and 10%, pH 2.0-5.0): improved affinity
- binding of GLP-1 to FDKP particles ([1]; NaCl, pH 4.0 and above): reduction in binding
- effect of TFE on GLP-1 affinity for the microparticle surface ([1]; TFE, lower pHs tested): detrimental
- binding (adsorption) of GLP-1 to FDKP particles ([1]; all NaCl concentrations tested, pH about 2.0 to about 3.5): enhanced binding
- GLP-1 peptide detected in reconstituted microparticle-free control samples ([2]; 10% HFIP and TFE, pH 4.0): 0.13 to 0.19 mg/mL
- GLP-1 peptide detected in reconstituted microparticle-free control samples ([2]; 10% HFIP or TFE, pH 2.0): no GLP-1 was detected
- GLP-1 peptide detected in reconstituted microparticle-free control samples [3]: 0.02 to 0.04 mg/mL

Substance: insulin [reference compound]
- affinity of insulin for the FDKP microparticle surface vs control ([1]; 100 mM chaotropes and kosmotropes, pH 3.0, […] insulin, 5 mg/mL FDKP): improved the affinity
- affinity of insulin for the FDKP microparticle surface vs control ([1]; 100 mM chaotropes and kosmotropes, pH 4): this effect was not observed
- adsorption of insulin to the FDKP microparticle surface vs control ([1]; 100 mM chaotropes and kosmotropes, pH 5.0 (insulin precipitated)): interfered with the adsorption
- affinity of insulin for the FDKP particle surface ([1]; 100 mM osmolytes (PEG, glycine, trehalose, mannitol, Hex-Gly), pH 3.0 to 5.0): significantly improved affinity
- binding (adsorption) of insulin onto FDKP particles ([1]; 100-500 mM NaCl, pH about 2.5 to about 3.5): increased binding
- adsorption of insulin to the FDKP particle ([1]; all NaCl concentrations tested, pH about 4.0 to about 5.0): reduction in the adsorption

Substance: parathyroid hormone [PTH]
- binding of PTH to the FDKP particles ([1]; 250 to 1000 mM NaCl, pH about 2.0 to about 3.5): enhanced binding
- binding of PTH to the microparticle ([1]; in the presence of salt, pH about 3.5 to about 5.0): decreased
- affinity of PTH for the FDKP microparticle surface ([1]; strong chaotropes NaSCN and NaClO4, pH 4.0 to about 4.5): greater

Source: patent US11103459B2, “Method of drug formulation based on increasing the affinity of active agents for crystalline microparticle surfaces” (MannKind Corporation, priority 2005, dated 2021)
